Assay results: publication PMC11060668
Where no end group is shown, it is not given here. [ ]: non-standard residue; d: D form. pY = N[C@@H](Cc1ccc(OP(=O)(O)O)cc1)C(=O)O

Target: T1, PTP1B (residue 1-321) (UniProt P18031)
T1 sequence: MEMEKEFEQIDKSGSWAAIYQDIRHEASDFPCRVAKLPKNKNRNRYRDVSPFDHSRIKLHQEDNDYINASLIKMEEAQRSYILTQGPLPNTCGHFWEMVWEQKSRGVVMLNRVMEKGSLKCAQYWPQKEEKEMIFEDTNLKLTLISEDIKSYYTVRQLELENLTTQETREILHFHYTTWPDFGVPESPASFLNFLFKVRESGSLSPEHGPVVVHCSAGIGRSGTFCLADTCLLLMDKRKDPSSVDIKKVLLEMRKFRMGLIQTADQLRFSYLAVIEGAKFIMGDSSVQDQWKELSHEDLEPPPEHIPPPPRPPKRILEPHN

kcat/KM of dephosphorylation of the peptide by purified PTP1B: 2.17e+06 M^−1 S^−1
Binder: ELD[pY][pY]DSHN [alpha-actinin4 derived di-phospho-tyrosine peptide ELDpYpYDSHN]
